Measurements from paper PMC8233664, “CAR T cells targeting tumor-associated exons of glypican 2 regress neuroblastoma in mice” (Cell Reports Medicine, 2021).

Columns and labels:
[1] = biological target: cell surface GPC2 on neuroblastoma cells (Homo sapiens, UniProt Q8N158); assay: cell-based or functional assay
[2] = biological target: human GPC2 stably overexpressed on G10 (A431) and F8 (IMR5) cells (Homo sapiens, UniProt Q8N158); assay: cell-based or functional assay
[3] = biological target: T1, recombinant human GPC2 protein (Homo sapiens, UniProt Q8N158); assay: BLI; Octet RED96; His-tagged GPC2 immobilised on Ni-NTA biosensors; association 600 s, dissociation 1800 s; settings: both partners purified
T1 construct: human glypican 2 (GPC2), recombinant protein from R&D Systems; also called human glypican 2; His-tagged GPC2 protein; source: bought: R&D Systems

[4] = biological target: T2, GPC2 exon 3 peptide 10 (Homo sapiens); assay: ELISA; single 18-residue peptides at 5 μg/ml in PBS coated overnight; 1 μg/ml CT3; detected with goat anti-mouse IgG-HRP; settings: both partners purified
T2 construct: human glypican 2, 18-residue peptide no; 10 of the overlapping library (9 residues overlap), in exon 3; source: synthetic peptide (Genscript)
T2 chain: RKFDEFFLEMLSVAQHSL

[5] = biological target: T3, GPC2 exon 3 peptide 11 (Homo sapiens); assay: as above; settings: both partners purified
T3 construct: human glypican 2, 18-residue peptide no; 11 of the overlapping library (9 residues overlap), in exon 3; source: synthetic peptide (Genscript)
T3 chain: MLSVAQHSLTQLFSHSYG

[6] = biological target: T4, GPC2 exon 3 peptide 12 (Homo sapiens); assay: as above; settings: both partners purified
T4 construct: human glypican 2, 18-residue peptide no; 12 of the overlapping library (9 residues overlap), in exon 3; source: synthetic peptide (Genscript)
T4 chain: TQLFSHSYGRLYAQHALI

[7] = biological target: T5, GPC2 exon 3 peptide 13 (Homo sapiens); assay: as above; settings: both partners purified
T5 construct: human glypican 2, 18-residue peptide no; 13 of the overlapping library (9 residues overlap), in exon 3; source: synthetic peptide (Genscript)
T5 chain: RLYAQHALIFNGLFSRLR

[8] = biological target: T6, GPC2 exon 3 peptide 14 (Homo sapiens); assay: as above; settings: both partners purified
T6 construct: human glypican 2, 18-residue peptide no; 14 of the overlapping library (9 residues overlap), in exon 3; source: synthetic peptide (Genscript)
T6 chain: FNGLFSRLRDFYGESGEG

[9] = biological target: T7, GPC2 exon 3 peptide 15 (Homo sapiens); assay: as above; settings: both partners purified
T7 construct: human glypican 2, 18-residue peptide no; 15 of the overlapping library (9 residues overlap), in exon 3; source: synthetic peptide (Genscript)
T7 chain: DFYGESGEGLDDTLADFW

[10] = biological target: T8, GPC2 exon 3 peptide 16 (Homo sapiens); assay: as above; settings: both partners purified
T8 construct: human glypican 2, 18-residue peptide no; 16 of the overlapping library (9 residues overlap), in exon 3; source: synthetic peptide (Genscript)
T8 chain: LDDTLADFWAQLLERVFP

[11] = biological target: T9, GPC2 exon 3 peptide 17 (Homo sapiens); assay: as above; settings: both partners purified
T9 construct: human glypican 2, 18-residue peptide no; 17 of the overlapping library (9 residues overlap), in exon 3; source: synthetic peptide (Genscript)
T9 chain: AQLLERVFPLLHPQYSFP

[12] = biological target: T10, GPC2 exon 3 peptide 18 (Homo sapiens); assay: as above; settings: both partners purified
T10 construct: human glypican 2, 18-residue peptide no; 18 of the overlapping library (9 residues overlap), in exon 3; source: synthetic peptide (Genscript)
T10 chain: LLHPQYSFPPDYLLCLSR

[13] = biological target: T11, GPC2 exon 3 peptide 19 (Homo sapiens); assay: as above; settings: both partners purified
T11 construct: human glypican 2, 18-residue peptide no; 19 of the overlapping library (9 residues overlap), in exon 3; source: synthetic peptide (Genscript)
T11 chain: PDYLLCLSRLASSTDGSL

[14] = biological target: T12, GPC2 exon 3 peptide 20 (Homo sapiens); assay: as above; settings: both partners purified
T12 construct: human glypican 2, 18-residue peptide no; 20 of the overlapping library (9 residues overlap), in exon 3; source: synthetic peptide (Genscript)
T12 chain: LASSTDGSLQPFGDSPRR

[15] = biological target: T13, GPC2 exon 3 peptide 21 (Homo sapiens); assay: as above; settings: both partners purified
T13 construct: human glypican 2, 18-residue peptide no; 21 of the overlapping library (9 residues overlap), in exon 3; source: synthetic peptide (Genscript)
T13 chain: QPFGDSPRRLRLQITRTL

[16] = biological target: T14, recombinant human GPC5 protein (Homo sapiens, UniProt P78333); assay: ELISA; CT3 at 1 μg/ml on human GPC1 through GPC6 and mouse GPC2 proteins (R&D Systems) and GPC2 exon 3-hFc; detected with goat anti-mouse IgG-HRP; settings: both partners purified
T14 construct: human glypican 5, recombinant protein from R&D Systems; source: bought: R&D Systems

[17] = biological target: T15, recombinant human GPC6 protein (Homo sapiens, UniProt Q9Y625); assay: as above; settings: both partners purified
T15 construct: human glypican 6, recombinant protein from R&D Systems; source: bought: R&D Systems

[18] = biological target: T16, human GPC2 exon3-hFc protein (Homo sapiens); assay: as above; settings: both partners purified
T16 construct: human glypican 2, the stretch encoded by exon 3 (of transcript GPC2-201); also called recombinant exon 3 fragment of GPC2; exon 3 of GPC2; source: cloned into the pVRC8400 expression plasmid
T16 chain: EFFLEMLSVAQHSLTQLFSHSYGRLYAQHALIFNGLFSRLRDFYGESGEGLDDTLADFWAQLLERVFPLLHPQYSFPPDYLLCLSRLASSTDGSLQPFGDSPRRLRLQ

[19] = biological target: T17, recombinant human GPC4 protein (Homo sapiens, UniProt O75487); assay: as above; settings: both partners purified
T17 construct: human glypican 4, recombinant protein from R&D Systems; source: bought: R&D Systems

[20] = biological target: T18, recombinant human GPC1 protein (Homo sapiens, UniProt P35052); assay: ELISA; plates coated with recombinant human GPC2, GPC1 and GPC3; mouse hybridoma supernatant containing 1 μg/ml of each mAb; detected with goat anti-mouse IgG-HRP; settings: one partner purified
T18 construct: human glypican 1, recombinant protein from R&D Systems; source: bought: R&D Systems

[21] = biological target: T19, recombinant human GPC3 protein (Homo sapiens, UniProt P51654); assay: as above; settings: one partner purified
T19 construct: human glypican 3, recombinant protein from R&D Systems; source: bought: R&D Systems
T19 sequence (P51654 25-580): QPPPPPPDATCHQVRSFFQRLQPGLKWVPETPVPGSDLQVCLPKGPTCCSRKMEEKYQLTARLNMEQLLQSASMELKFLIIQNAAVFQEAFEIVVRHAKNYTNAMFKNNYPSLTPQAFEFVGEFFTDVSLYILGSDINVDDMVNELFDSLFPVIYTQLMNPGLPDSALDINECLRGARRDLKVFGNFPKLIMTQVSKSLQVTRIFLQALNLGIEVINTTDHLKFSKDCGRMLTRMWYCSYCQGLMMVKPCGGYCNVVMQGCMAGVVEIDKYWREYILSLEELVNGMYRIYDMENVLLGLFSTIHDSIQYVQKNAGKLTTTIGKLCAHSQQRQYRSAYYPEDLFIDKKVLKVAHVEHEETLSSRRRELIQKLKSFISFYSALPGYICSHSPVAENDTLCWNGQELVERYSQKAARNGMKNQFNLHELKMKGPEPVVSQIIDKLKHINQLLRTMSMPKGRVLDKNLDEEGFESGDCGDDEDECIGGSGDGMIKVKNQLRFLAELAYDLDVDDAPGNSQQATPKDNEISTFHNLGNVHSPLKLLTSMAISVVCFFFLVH

Chain of cell surface GPC2 on neuroblastoma cells (Q8N158 24-554): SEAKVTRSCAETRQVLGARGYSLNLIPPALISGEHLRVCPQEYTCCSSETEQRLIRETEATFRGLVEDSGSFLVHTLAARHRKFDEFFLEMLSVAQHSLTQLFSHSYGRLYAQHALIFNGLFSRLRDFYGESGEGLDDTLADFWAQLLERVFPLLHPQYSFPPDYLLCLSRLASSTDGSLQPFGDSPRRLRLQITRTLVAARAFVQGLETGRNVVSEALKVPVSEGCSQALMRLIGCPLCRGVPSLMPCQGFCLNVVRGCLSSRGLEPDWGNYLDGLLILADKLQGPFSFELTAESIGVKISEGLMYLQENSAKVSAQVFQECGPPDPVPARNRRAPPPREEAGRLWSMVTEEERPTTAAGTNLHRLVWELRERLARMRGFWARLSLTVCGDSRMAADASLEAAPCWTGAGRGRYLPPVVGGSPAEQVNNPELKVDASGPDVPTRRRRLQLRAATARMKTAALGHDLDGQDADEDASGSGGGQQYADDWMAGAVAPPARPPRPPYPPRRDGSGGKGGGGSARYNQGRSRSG
T17 sequence (O75487 19-529): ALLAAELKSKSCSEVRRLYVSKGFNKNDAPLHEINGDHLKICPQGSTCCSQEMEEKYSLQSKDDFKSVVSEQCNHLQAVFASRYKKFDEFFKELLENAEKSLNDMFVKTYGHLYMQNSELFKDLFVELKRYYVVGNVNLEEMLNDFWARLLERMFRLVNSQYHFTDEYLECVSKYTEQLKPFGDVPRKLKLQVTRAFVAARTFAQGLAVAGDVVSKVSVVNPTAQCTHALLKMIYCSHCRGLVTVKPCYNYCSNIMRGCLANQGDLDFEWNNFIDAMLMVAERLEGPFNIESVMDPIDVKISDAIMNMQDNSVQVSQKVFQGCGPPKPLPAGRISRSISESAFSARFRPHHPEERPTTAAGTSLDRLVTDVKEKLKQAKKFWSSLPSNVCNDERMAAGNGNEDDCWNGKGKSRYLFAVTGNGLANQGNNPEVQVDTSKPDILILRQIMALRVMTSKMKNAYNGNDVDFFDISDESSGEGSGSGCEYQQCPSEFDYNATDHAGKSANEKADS
T1 sequence (Q8N158 24-554): as the sequence (Q8N158 24-554) above
Chain of human GPC2 stably overexpressed on G10 (A431) and F8 (IMR5) cells (Q8N158 24-554): as above
T15 sequence (Q9Y625 24-529): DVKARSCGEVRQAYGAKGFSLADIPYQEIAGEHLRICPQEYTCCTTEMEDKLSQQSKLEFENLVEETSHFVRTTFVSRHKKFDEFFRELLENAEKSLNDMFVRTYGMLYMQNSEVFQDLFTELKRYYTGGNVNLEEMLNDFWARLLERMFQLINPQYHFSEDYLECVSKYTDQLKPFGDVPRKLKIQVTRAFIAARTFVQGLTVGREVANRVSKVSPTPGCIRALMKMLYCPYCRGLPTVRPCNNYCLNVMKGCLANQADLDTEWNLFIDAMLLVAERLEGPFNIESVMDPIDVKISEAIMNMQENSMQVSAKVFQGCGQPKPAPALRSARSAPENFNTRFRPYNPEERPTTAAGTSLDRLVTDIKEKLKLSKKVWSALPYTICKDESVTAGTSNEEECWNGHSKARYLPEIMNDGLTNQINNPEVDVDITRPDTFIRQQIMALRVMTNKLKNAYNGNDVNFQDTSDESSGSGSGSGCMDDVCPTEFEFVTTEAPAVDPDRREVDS
T18 sequence (P35052 24-530): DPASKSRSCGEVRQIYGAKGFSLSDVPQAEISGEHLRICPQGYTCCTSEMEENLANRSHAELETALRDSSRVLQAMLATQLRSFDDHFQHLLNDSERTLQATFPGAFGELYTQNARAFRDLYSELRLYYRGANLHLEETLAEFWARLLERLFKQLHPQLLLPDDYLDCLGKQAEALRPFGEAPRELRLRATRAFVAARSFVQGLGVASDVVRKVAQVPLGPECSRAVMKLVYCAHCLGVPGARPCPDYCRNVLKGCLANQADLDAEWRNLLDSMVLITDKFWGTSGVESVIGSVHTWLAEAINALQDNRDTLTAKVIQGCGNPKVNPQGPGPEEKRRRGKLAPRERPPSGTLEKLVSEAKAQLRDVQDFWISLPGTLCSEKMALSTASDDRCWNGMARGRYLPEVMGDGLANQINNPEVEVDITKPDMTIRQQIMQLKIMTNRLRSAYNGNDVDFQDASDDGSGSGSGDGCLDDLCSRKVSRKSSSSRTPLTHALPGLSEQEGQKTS
T14 sequence (P78333 25-572): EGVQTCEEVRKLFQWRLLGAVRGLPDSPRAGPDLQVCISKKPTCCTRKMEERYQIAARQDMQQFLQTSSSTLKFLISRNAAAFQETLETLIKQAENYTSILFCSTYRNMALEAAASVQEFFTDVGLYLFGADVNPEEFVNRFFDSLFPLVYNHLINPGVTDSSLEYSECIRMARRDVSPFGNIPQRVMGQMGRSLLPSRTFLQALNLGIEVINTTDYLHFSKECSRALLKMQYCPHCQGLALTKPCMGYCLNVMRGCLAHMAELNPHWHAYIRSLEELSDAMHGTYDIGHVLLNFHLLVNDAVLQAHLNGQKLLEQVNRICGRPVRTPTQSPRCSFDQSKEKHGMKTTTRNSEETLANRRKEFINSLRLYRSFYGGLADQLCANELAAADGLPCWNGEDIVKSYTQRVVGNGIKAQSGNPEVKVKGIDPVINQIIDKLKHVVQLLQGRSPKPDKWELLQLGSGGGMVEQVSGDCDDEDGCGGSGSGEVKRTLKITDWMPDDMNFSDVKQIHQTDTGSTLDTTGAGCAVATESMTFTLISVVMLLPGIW

- Kd [3]: 0.5 nM
- binding result [4]: no binding (tested: 1 μg/ml of CT3)
- binding result [5]: no binding (tested: 1 μg/ml of CT3)
- binding result [6]: no binding (tested: 1 μg/ml of CT3)
- binding result [7]: no binding (tested: 1 μg/ml of CT3)
- binding result [8]: no binding (tested: 1 μg/ml of CT3)
- binding result [9]: no binding (tested: 1 μg/ml of CT3)
- binding result [10]: no binding (tested: 1 μg/ml of CT3)
- binding result [11]: no binding (tested: 1 μg/ml of CT3)
- binding result [12]: no binding (tested: 1 μg/ml of CT3)
- binding result [13]: no binding (tested: 1 μg/ml of CT3)
- binding result [14]: no binding (tested: 1 μg/ml of CT3)
- binding result [15]: no binding (tested: 1 μg/ml of CT3)
- binding result [16]: no binding (tested: 1 μg/mL of CT3)
- binding result [17]: no binding (tested: 1 μg/mL of CT3)
- binding result [18]: binds
- binding result [19]: no binding (tested: 1 μg/mL of CT3)
- binding result [20]: no binding (tested: 1 μg/ml of each mAb)
- binding result [21]: no binding (tested: 1 μg/ml of each mAb)
B1: CT3 monoclonal antibody (antibody, V domains shown)
VH: EVQLQQSGPELVKPGASVKMSCKASRFTFTDYNIHWVKQSPGKTLEWIGYINPNNGDIFYKQKFNGKATLTINKSSNTAYMELRSLTSEDSAVYYCVRSSNIRYTFDRFFDVWGTGTTVTVSS
VL: ENVLTQSPAIMSASLGEKVTMSCRASSSVNYIYWYQQKSDASPKLWIYYTSNLAPGVPARFSGSGSGNSYSLTISSMEGEDAATYYCQQFSSSPSTFGTGTKLELK
notes: variable regions were cloned by 5'RACE; EM maps of the CT3 Fab/GPC2 complex deposited at wwPDB (deposition ID D_1000256119); Mouse mAb raised against the 50-residue C-terminal (exon 10) peptide of GPC2; also called CT3 mAb; source: mouse hybridoma (parental clone 2); hybridoma supernatant and purified mAb
- cytotoxicity of CT3 CAR T cells (CT3 as scFv in a CAR with CD8α hinge) on NBEB cells, xCELLigence real-time analysis, E:T ratio 1:1, 25 h [1]: 74%
- cytotoxicity of CT3 CAR T cells (CT3 as scFv in a CAR with CD8α hinge) on SKNAS cells, xCELLigence real-time analysis, E:T ratio 1:1, 25 h [1]: 43%
- lysis of NB PDX-derived cells by CT3 CAR T cells (CT3 as scFv in a 4-1BB CAR), luciferase-based killing assay, E:T ratio 25:1, 24 to 72 h of co-culture [1]: 80%
- lysis of G10 and F8 cells (high GPC2) by CT3 CAR T cells (CT3 as scFv in a 4-1BB CAR), luciferase-based killing assay, 24 h, E:T ratio 3:1 [2]: ~70%
